This is an account of results in article PMC10932109, “Solution Structures of Two Different FRP-OCP Complexes as Revealed via SEC-SANS” (International Journal of Molecular Sciences, 2024).

Where “and” joins values, the source holds several entries; their conditions need not be identical. Equal entries are not always repeated.

The target in data set [1] is OCPR (Synechocystis sp. PCC 6803) (UniProt P74102). The conditions noted are these: cited from earlier work.
In data set [2] the target is OCPO (Synechocystis sp. PCC 6803) (UniProt P74102). The conditions noted are these: cited from earlier work.
Data set [3] deals with the molecule itself. The experiment in a line: SEC + other: SANS; in-line SEC-SANS at D22 (ILL); Superdex 200 Increase 10/300 GL; 25 °C; 250 µL injected at about 5 mg/mL total protein; two fractions (high MW, low MW) analysed separately; stoichiometries assigned from dimensions, DAMMIF shapes and Pepsi-SANS FlexFit models.
For data set [4], the target named is T1, orange carotenoid protein lacking the N-terminal extension (^∆NTEOCP^O) (Synechocystis sp. PCC 6803, UniProt P74102 13-317).
T1 construct: glycine left from the human rhinovirus 3C protease site (LEVLFQ/GP) after cleavage; the P of GP is read as Pro13 of OCP; Orange carotenoid protein (OCP), Synechocystis sp; PCC 6803, slr1963, from Pro13 (P-NTLAA...) to the C-terminus; the N-terminal extension is removed with the His-tag by 3C cleavage; Gene optimised for E. coli, vector pRSFDuet-1; also called ^ΔNTEOCP^O; compact mutant of OCP …
T1 sequence: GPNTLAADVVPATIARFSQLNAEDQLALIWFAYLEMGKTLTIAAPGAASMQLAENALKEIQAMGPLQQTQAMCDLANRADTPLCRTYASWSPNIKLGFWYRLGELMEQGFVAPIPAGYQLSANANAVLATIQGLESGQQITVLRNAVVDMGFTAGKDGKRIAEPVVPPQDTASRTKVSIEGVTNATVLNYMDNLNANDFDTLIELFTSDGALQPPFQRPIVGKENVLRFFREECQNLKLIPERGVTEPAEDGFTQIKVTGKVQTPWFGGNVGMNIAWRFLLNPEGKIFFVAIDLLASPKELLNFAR
Described as above. The conditions noted are these: both partners purified.

On to FRP (from UniProt P74103), for which the Kd (as a rule, a measure of binding affinity in units of concentration) is 3 µM in data set [1] and 35 µM in data set [2].

B1: fluorescence recovery protein (FRP), wild type (natural protein, Synechocystis sp. PCC 6803)
chain: LQTAEAPWSQAETQSAHALFRKAYQRELDGLLATVQAQASQITQIDDLWKLHDFLSAKRHEIDGKYDDRQSVIIFVFAQLLKEGLVQAEELTFLAADKQSKIKALARL
notes: Fluorescence recovery protein (FRP), Synechocystis sp; PCC 6803, slr1964, wild type; also called wild-type FRP; dimeric FRP; source: E. coli, purified (Superdex 200 Increase 10/300, phosphate-buffered saline)
For B1, the binding result in data set [3] was “binds”. In addition, the stoichiometry N (as a rule, the number of molecules, sites or subunits per partner or assembly) in data set [4] is 2 FRP per ^∆NTEOCP^O (2:1 complex, low MW fraction) and 1 FRP per ^∆NTEOCP^O (2:2 complex, high MW fraction).
